This is an account of results in the Immune Epitope Database (IEDB).

Experiment [1] addresses HLA-B*40:01. Description: IEDB peptide-MHC binding, purified MHC/direct/fluorescence; filed as Kd, often an IC50 or EC50 that approximates it; ≥ and ≤ were set here for values at or beyond the usual limits of such assays.
Experiment [2] has as its target HLA-B*07:02. The experiment is described as above.
The target in experiment [3] is HLA-A*03:01. Described as above.
Experiment [4] concerns the target HLA-B*15:01. The description is as above.
Experiment [5] deals with HLA-A*02:01. The experiment is described as above.
Experiment [6] concerns the target HLA-A*26:01. Described as above.
Experiment [7] deals with HLA-B*58:01. The description is as above.
For experiment [8], the target named is HLA-A*01:01. The description is as above.
Experiment [9] deals with HLA-A*31:01. The description is as above.
Experiment [10] deals with HLA-A*11:01. The experiment is described as above.
Experiment [11] deals with HLA-B*44:02. The description is as above.
Experiment [12] has as its target HLA-B*08:01. The description is as above.
Experiment [13] has as its target HLA-B*27:05. The experiment is described as above.
Experiment [14] concerns the target HLA-A*69:01. The description is as above.
The target of experiment [15] is HLA-B*44:03. Kind of experiment: IEDB peptide-MHC binding, purified MHC/competitive/radioactivity; filed as Kd, often an IC50 or EC50 that approximates it; ≥ and ≤ were set here for values at or beyond the usual limits of such assays. The settings on record: source organism: Mammarenavirus lassaense.
In experiment [16] the target is HLA-B*07:02. The experiment is described as above.
In experiment [17] the target is HLA-B*35:01. The description is as above.
Experiment [18] deals with HLA-B*53:01. Described as above.
The target in experiment [19] is HLA-B*51:01. Described as above.
Experiment [20] deals with HLA-B*54:01. The experiment is described as above.
Experiment [21] concerns the target HLA-A*24:03. Kind of experiment: IEDB peptide-MHC binding, purified MHC/direct/fluorescence; filed as Kd, often an IC50 or EC50 that approximates it; ≥ and ≤ were set here for values at or beyond the usual limits of such assays.
Experiment [22] concerns the target HLA-A*30:02. Description: IEDB peptide-MHC binding, purified MHC/competitive/radioactivity; filed as Kd, often an IC50 or EC50 that approximates it; ≥ and ≤ were set here for values at or beyond the usual limits of such assays. As to conditions: source organism: Dengue virus 3 Martinique/1243/1999.
Where [23] appears, read: source organism: Vibrio cholerae.
Setting [24] is: source organism: Mammarenavirus lassaense.
[25] abbreviates: source organism: Giardia lamblia ATCC 50803.
Setting [26] is: source organism: Vaccinia virus WR.
Setting [27] is: source organism: Triticum aestivum.
[28] abbreviates: source organism: SARS coronavirus Tor2.
Where [29] appears, read: source organism: dengue virus type 3.

One may read the Kd as the constant that tells how readily two partners part at equilibrium. As to AEIDRSFKP, the Kd in experiment [1] (setting [23]) is 1510 nM; in experiment [2] (setting [23]), ≥ 20000 nM; in experiment [3] (setting [23]), ≥ 20000 nM; in experiment [4] (setting [23]), ≥ 20000 nM; in [5] (setting [23]) it was ≥ 20000 nM; in experiment [6] (setting [23]), ≥ 20000 nM. Besides, the Kd in [7] (setting [23]), in [8] (setting [23]), in [9] (setting [23]), in [10] (setting [23]), in [11] (setting [23]) and in experiment [12] (setting [23]) was ≥ 20000 nM each time. Besides, the Kd in experiment [13] (setting [23]) and in experiment [14] (setting [23]) was ≥ 20000 nM throughout.
For the sequence CPNSYDSIM, the Kd in experiment [15] was 7570 nM; in experiment [16] (setting [24]), 142 nM; in [17] (setting [24]), 8.12 nM; in experiment [18] (setting [24]) it was 41.9 nM; in [19] (setting [24]), 2270 nM; in experiment [20] (setting [24]), 1590 nM.
Consider DIIRAHPWF, for which the Kd is ≥ 20000 nM in experiment [1] (setting [25]); ≥ 20000 nM in experiment [2] (setting [25]); 8160 nM in experiment [3] (setting [25]); 16600 nM in experiment [4] (setting [25]); 286 nM in experiment [6] (setting [25]); ≥ 20000 nM in experiment [7] (setting [25]). In addition, the Kd in experiment [8] (setting [25]) was ≥ 20000 nM; in experiment [9] (setting [25]) it was ≥ 20000 nM; in experiment [10] (setting [25]), ≥ 20000 nM; in [11] (setting [25]), ≥ 20000 nM; in [12] (setting [25]), 9920 nM; in [13] (setting [25]), ≥ 20000 nM. Further, in experiment [14] (setting [25]), the Kd was ≥ 20000 nM.
With DPMVIENGI, the dissociation constant (Kd) was 388 nM in experiment [16] (setting [26]); 2360 nM in experiment [17] (setting [26]); 3860 nM in experiment [18] (setting [26]); 34.6 nM in [19] (setting [26]); 485 nM in [20] (setting [26]).
Take DPSERVFKKI: the Kd in experiment [16] (setting [26]) is ≥ 69600 nM; in experiment [17] (setting [26]), ≥ 69900 nM; in experiment [18] (setting [26]) it was 18200 nM; in experiment [19] (setting [26]) it was ≥ 46700 nM; in experiment [20] (setting [26]), ≥ 43300 nM.
As to FPGDKTSYWV, the Kd in experiment [16] (setting [26]) was 261 nM; in experiment [17] (setting [26]), 88.8 nM; in [18] (setting [26]), 14.4 nM; in experiment [19] (setting [26]) it was 50.1 nM; in experiment [20] (setting [26]) it was 5.36 nM.
Turning to FPGQQQPF, the Kd is ≥ 37400 nM in experiment [16] (setting [27]); ≥ 87800 nM in [17] (setting [27]); ≥ 87700 nM in experiment [18] (setting [27]); ≥ 30600 nM in [19] (setting [27]); ≥ 87700 nM in [20] (setting [27]).
Take FPQAAPHGVV: the dissociation constant Kd in experiment [16] (setting [28]) came to 82.2 nM; in experiment [17] (setting [28]), 1680 nM; in experiment [18] (setting [28]) it was 4140 nM; in [19] (setting [28]) it was 159 nM; in [20] (setting [28]), 15.8 nM.
Turning to FPSIFSTEV, the Kd stood at 244 nM in experiment [16] (setting [24]); 97.7 nM in [17] (setting [24]); 57.3 nM in [18] (setting [24]); 330 nM in [19] (setting [24]); 4.42 nM in [20] (setting [24]).
With IYKNKISDF, the dissociation constant (Kd) in [21] (source organism: Cryptosporidium parvum) was 130 nM.
In the case of KPRSQMETDF, the Kd in [16] (setting [28]) was 78.8 nM; in [17] (setting [28]) it was 19500 nM; in experiment [18] (setting [28]), ≥ 53700 nM; in experiment [19] (setting [28]), 2500 nM; in experiment [20] (setting [28]), ≥ 49300 nM.
Consider KPVDTSNSF, for which the Kd in experiment [16] (setting [28]) turned out to be 20.7 nM; in experiment [17] (setting [28]), 266 nM; in experiment [18] (setting [28]) it was 151 nM; in experiment [19] (setting [28]), 898 nM; in [20] (setting [28]), 5770 nM.
With LPAMCNVY, the Kd was ≥ 21200 nM in [16] (setting [27]); 41.3 nM in experiment [17] (setting [27]); 1070 nM in [18] (setting [27]); 5760 nM in [19] (setting [27]); 2820 nM in experiment [20] (setting [27]).
Regarding MPICMDVRAI, the Kd in [16] (setting [28]) came to 300 nM; in [17] (setting [28]) it was 94.8 nM; in experiment [18] (setting [28]), 5.98 nM; in experiment [19] (setting [28]), 2.24 nM; in experiment [20] (setting [28]), 3.96 nM.
Regarding MPTYKHLIMF, the Kd in experiment [16] (setting [26]) is 21.8 nM; in experiment [17] (setting [26]), 20.6 nM; in experiment [18] (setting [26]) it was 18 nM; in experiment [19] (setting [26]) it was 843 nM; in experiment [20] (setting [26]), 23.6 nM.
For NPLFHGGEPI the same measures were 8.02 nM, 3550 nM, 312 nM, 4460 nM and 382 nM.
PYATGPLVF: the Kd in experiment [21] (source organism: Mycobacterium tuberculosis) is 382 nM.
Turning to SPYYIRKESY, the Kd in [16] (setting [26]) is 65.4 nM; in [17] (setting [26]), 101 nM; in experiment [18] (setting [26]), 646 nM; in [19] (setting [26]), ≥ 69600 nM; in [20] (setting [26]), 669 nM.
With SYLQAIGIL, the Kd in experiment [21] (source organism: Listeria monocytogenes) was found to be 1.1 nM.
Turning to TSEHGGRAY, the Kd in [22] was ≥ 67200 nM; in [1] (setting [29]), ≥ 20000 nM; in experiment [2] (setting [29]) it was ≥ 20000 nM; in experiment [3] (setting [29]) it was ≥ 20000 nM; in experiment [4] (setting [29]), 248 nM; in experiment [5] (setting [29]), ≥ 20000 nM. The Kd in experiment [7] (setting [29]) was ≥ 20000 nM; in experiment [8] (setting [29]), 337 nM; in experiment [9] (setting [29]), ≥ 20000 nM; in [10] (setting [29]), ≥ 20000 nM; in experiment [11] (setting [29]), ≥ 20000 nM; in experiment [13] (setting [29]) it was ≥ 20000 nM. Moreover, the Kd in experiment [14] (setting [29]) was ≥ 20000 nM.
Consider WPVTLACFVL, for which the dissociation constant Kd in experiment [16] (setting [28]) was found to be 956 nM; in experiment [17] (setting [28]), 71.5 nM; in experiment [18] (setting [28]), 73.8 nM; in experiment [19] (setting [28]), 9.11 nM; in experiment [20] (setting [28]), 3560 nM.
In the case of YPEYNRAVKF, the Kd in experiment [16] (setting [26]) worked out at 122 nM; in experiment [17] (setting [26]), 808 nM; in [18] (setting [26]), 41.7 nM; in experiment [19] (setting [26]) it was 857 nM; in experiment [20] (setting [26]) it was 473 nM.
